T1: Dsk2-UBL D64K (Saccharomyces cerevisiae, UniProt P48510 1-75, D64K)
T1 sequence: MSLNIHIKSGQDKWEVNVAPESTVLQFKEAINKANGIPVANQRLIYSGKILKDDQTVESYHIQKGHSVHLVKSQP

T2: Dsk2 (full length) (Saccharomyces cerevisiae, UniProt P48510 1-373)
T2 sequence (looked up): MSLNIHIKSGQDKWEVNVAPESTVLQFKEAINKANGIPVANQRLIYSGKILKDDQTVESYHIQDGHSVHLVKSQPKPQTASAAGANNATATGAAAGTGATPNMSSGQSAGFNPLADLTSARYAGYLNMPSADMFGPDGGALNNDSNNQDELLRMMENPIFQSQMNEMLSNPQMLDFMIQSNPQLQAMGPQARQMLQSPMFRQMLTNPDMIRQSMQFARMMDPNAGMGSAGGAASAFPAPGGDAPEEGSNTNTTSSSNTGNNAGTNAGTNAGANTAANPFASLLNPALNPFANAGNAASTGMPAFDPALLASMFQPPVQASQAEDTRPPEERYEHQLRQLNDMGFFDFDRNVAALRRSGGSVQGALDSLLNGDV

B1: Dsk2-UBL (domain or fragment, Saccharomyces cerevisiae)
chain: T1 sequence with K64D
B2: Rpn10 C-terminal construct Rpn10_(204-268) (domain or fragment, Saccharomyces cerevisiae, UniProt P38886 204-268, looked up)
chain: GSGGDSDANGTFMDFGVDPSMDPELAMALRLSMEEEQQRQERLRQQQQQQDQPEQSEYPEQHQDK

Changes are numbered by the printed parent chain.

Test [1] has as its target B2. Description: NMR titration.
Test [2] has as its target B1. Description: NMR titration.
Test [3] concerns the target T1, Dsk2-UBL D64K. Description: NMR titration.
In the next test the target is T2, Dsk2 (full length). Description: SPR.
The target in test [4] is B1. The test is described as follows: SPR.
The target of test [5] is T1, Dsk2-UBL D64K. Description: SPR. For orientation: In SPR one partner is held on a chip, and binding of the other changes the refractive index at the surface.

For orientation: stoichiometry N means a count of units in the complex or per binding partner. Usually Kd stands for the concentration at which binding is half-saturated. A higher Kd goes with a looser complex.

Regarding B1, the “stoichiometry N” value in test [1] was 1.
Turning to B2, the Kd with Dsk2-UBL [2] stood at 3.5 ± 0.7 µM; with Dsk2-UBL D64K [3] it was 39 ± 17 µM; with Dsk2 (full length) it was 12.5 µM; with Dsk2-UBL [4] it was 9 µM; with Dsk2-UBL D64K [5] it was 31.8 µM.

These data come from PMC2807407 (Molecular cell, 2009).
